Where a chain is given by its changes, count along the chain named.
T1: human iRhom2, endogenously expressed (human, UniProt Q6PJF5 1-856)
T1 sequence: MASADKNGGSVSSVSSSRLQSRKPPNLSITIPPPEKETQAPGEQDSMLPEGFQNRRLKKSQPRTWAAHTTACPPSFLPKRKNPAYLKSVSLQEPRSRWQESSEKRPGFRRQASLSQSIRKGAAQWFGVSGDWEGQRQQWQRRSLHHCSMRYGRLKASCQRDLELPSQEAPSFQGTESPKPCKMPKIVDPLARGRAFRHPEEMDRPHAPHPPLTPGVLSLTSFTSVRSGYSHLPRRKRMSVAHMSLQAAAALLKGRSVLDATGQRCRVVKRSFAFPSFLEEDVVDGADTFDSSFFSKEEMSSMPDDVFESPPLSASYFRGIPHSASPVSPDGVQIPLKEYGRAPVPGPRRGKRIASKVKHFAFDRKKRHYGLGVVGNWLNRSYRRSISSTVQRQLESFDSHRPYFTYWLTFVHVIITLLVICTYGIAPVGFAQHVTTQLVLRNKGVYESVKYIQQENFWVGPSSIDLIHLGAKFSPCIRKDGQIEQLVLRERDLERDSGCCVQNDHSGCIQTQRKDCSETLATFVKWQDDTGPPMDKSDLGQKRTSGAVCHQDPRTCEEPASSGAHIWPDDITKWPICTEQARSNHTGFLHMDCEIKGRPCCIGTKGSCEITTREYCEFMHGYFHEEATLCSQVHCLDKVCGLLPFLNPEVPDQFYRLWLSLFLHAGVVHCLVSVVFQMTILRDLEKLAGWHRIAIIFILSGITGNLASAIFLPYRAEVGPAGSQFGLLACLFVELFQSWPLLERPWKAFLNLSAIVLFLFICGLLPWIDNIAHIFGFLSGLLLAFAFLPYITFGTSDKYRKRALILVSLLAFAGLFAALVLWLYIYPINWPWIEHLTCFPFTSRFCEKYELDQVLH

T2: miR2-FL-WT-FLAG (mouse, UniProt Q80WQ6 1-827)
T2 construct: on MEF-DKO cells
T2 sequence: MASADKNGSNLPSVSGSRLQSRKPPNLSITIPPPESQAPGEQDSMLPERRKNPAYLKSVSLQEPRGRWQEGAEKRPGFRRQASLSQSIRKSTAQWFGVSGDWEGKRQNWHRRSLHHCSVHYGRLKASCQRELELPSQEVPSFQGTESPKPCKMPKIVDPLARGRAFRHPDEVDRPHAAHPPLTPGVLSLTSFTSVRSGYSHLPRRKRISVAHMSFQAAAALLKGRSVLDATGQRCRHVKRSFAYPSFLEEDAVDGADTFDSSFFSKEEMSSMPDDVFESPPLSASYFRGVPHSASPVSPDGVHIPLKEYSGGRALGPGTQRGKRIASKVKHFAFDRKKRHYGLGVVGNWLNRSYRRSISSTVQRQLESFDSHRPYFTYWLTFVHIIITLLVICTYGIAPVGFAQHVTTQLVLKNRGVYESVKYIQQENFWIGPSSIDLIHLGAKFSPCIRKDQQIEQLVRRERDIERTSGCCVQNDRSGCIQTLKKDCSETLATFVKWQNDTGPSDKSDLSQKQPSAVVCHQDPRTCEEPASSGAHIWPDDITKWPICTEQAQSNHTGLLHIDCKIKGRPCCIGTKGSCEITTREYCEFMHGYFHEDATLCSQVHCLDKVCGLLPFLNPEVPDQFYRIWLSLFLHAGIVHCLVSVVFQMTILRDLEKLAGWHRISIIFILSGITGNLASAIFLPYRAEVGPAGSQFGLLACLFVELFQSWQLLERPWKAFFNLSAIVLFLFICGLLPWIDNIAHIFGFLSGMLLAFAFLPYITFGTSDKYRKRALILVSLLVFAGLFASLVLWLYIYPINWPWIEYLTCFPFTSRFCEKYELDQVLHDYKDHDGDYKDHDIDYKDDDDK

B1: antibody 5 (antibody, V domains shown)
VH: QVTLKESGPGILQPSQTLSLTCSFSGFSLSTFGMGVGWIRQPSGKGLEWLAHIWWDDEKYYNSALKSRLTISKATSKNQAFLKIANVDTADTATYYCARISNYGSNYWYFNVWGTGTTVTVSS
VL: QVVLTQSPALMSASPGEKVTMTCSAGSSVSCMYWYQQKPGSSPRVLIYDTSNLASGVPARFTGSGSGTSYSLTISRMEAEDAASYYCQQWNSYPLTFGAGTKLELK
notes: mouse IgG, kappa light chain; also called clone #5; purified antibody 5
B2: antibody 42 (antibody, V domains shown)
VH: B1 VH with F24L, M34R, S63P, A74D, A80V, K83R, S101Q, N111D
VL: LIVLTQSPAIMSASPGEKVTMTCGATSRISYMFWYQQKPGSSPRVLIYDTSNLASGVPVRFSGSGSGTSYSLTISRVEAEDVATYYCQQWNSYPLTFGAGTKLELK
notes: mouse IgG, kappa light chain; also called clone #42; purified antibody 42
B3: antibody 22 (antibody, V domains shown)
VH: B1 VH with A80V
VL: B1 VL with C31Y, S84T
notes: mouse IgG, kappa light chain; also called clone #22; purified antibody 22
B4: antibody 16 (antibody, V domains shown)
VH: QVTLKESGPGILQPSQTLSLTCSFSGFSLSTFALGVGWIRQPSGRGLEWLAHIWWDDDKYYNPALKSRLTISKDTSKNHVFLKIANVDTADTATYYCARITTYYYGMDYWGQGTSVTVSS
VL: DIVLSQSPATLSVTPGDSVSLFCRASQSIGNHLHWYQQESHASPRLLIKYASQSISGIPSRFSGSGSGTDFTLSINSVETEDFGMYFCQQSYNWPLTFGAGTKLELK
notes: mouse IgG, kappa light chain; also called clone #16; purified antibody 16
B5: antibody 3 (antibody, V domains shown)
VH: QVTLKESGPGILQPSQTLSLTCSFSGFSLTTFAMGIGWVRQPSGKGLEWLAHIWWDGEKYNNPVLKSRLTISKDTSKNQVFLRIANVDTPDTATYYCARISSIYYIIDNWGQGTSVTVSS
VL: B4 VL with S5T, D17H, F22S, G30S, H32N, Q38K, E39K, A42E, A51V
notes: mouse IgG, kappa light chain; also called clone #3; purified antibody 3
B6: antibody 51 (antibody, V domains shown)
VH: QVQLQQSGAELVKPGASVKISCKASGYTFSNYWMNWVKQRPGKGLEWIGQIYPGDGDTKYNGKFKNKATLTADKSSSTAYMQFSSLTSEDSAVYFCARGDLVFVYWGLGTLVTVSA
VL: DVQITQSPSYLAVSPGETITINCRASKNIRKYLAWYQEKPGKTNKLLIYSGSTSQSGVPSRFSGSGSGTDFTLTISSLEPEDFAMYYCQQHNEYPYTFGGGTKLEIK
notes: mouse IgG, kappa light chain; also called clone #51
B7: antibody 48 (antibody, V domains shown)
VH: QVQLQQSGTELVRPGTSVKVSCKASGYAFTNYLIEWVKQRPGQGLEWIGVINPGSGFTKYNEKFKGKATLTADKSSSTVYMHLSSLTSEDSAVYFCARGLYRAMDYWGQGTSVTVSS
VL: DIQMTQSPASQSASLGESVTITCLASQTIATWLAWYQQKPGKSPQLLIYGATTLADGVPSRFSGGGSGTKFSFKISSLQAEDFVSYYCQQLYSTPYTFGGGTKLEIK
notes: mouse IgG, kappa light chain; also called clone #48; purified antibody 48
B8: antibody 47 (antibody, V domains shown)
VH: B7 VH with T9A, K59N, T69I, T71N, V79A, H82Q, S84I, G99D, Y101K, Y106H
VL: B7 VL with A30G, Y49H, G50A, T53S, G65S, L91I, T94S
notes: mouse IgG, kappa light chain; also called clone #47
B9: antibody 50 (antibody, V domains shown)
VH: B7 VH with T9A, T16A, T30S, V79A, H82Q
VL: B7 VL with A30G, G50A, T52A, T53S, S85N, L91I
notes: mouse IgG, kappa light chain; also called clone #50; purified antibody 50

Columns and labels:
[1] = target: T1, human iRhom2, endogenously expressed; experiment: cell-based or functional assay
miR2-FL-WT-FLAG = target: T2, miR2-FL-WT-FLAG; experiment: FACS, MEF-DKO-miR2-FL-WT-FLAG cells
Experimental: In brief, immortalized MEF-DKO-EV control cells, MEF-DKO-hiR2-FL-WT-FLAG cells and MEF-DKO-miR2-FL-WT-FLAG cells were harvested with 10 mM EDTA in PBS, washed and resuspended in FACS buffer (PBS, 3% FBS, 0.05% sodium azide), and seeded in Nunc U-bottom 96-well plates (Thermo Fisher Scientific, USA) at approximately 3×10⁵ cells per well. To pellet cells and remove supernatants, the plates were centrifuged at 1,500 rpm and 4° C. for 3 minutes. For primary staining, cells were resuspended in 100 μl per well of either FACS buffer alone (controls), mouse monoclonal anti-FLAG IgG (Sigma-Aldrich, USA) at 3 μg/ml FACS buffer or the antibodies of the invention also at 3 μg/ml FACS buffer and incubated on ice for 1 hour. Afterwards, plates were centrifuged at 1,500 rpm and 4° C. for 3 minutes and washed twice with 200 μl per well of FACS buffer. For secondary staining, cells were spun down and resuspended in 100 μl per well of PE-conjugated goat anti-mouse IgG F(ab′)2 detection fragment (Dianova, Germany) diluted 1:100 in FACS buffer. Protected from light, the cell suspensions were incubated on ice for 1 hour. Plates were then centrifuged at 1,500 rpm and 4° C. for 3 minutes and washed three times with 200 μl per well of FACS buffer. Finally, cells were resuspended in 150 μl per well of FACS buffer and analyzed using a BD Accuri™ C6 Plus flow cytometer (Becton Dickinson, Germany).

Binder | LPS-induced TNFα release from THP-1 cells, percent inhibition, 10 µg/ml, hybridoma-purified [1] [%] | LPS-induced TNFα release from THP-1 cells, percent inhibition, recombinant antibody [1] [%] | PMA-induced IL-6R release from THP-1 cells, percent inhibition, 1 µg/ml [1] [%] | PMA-induced IL-6R release from U-937 cells, percent inhibition, 1 µg/ml [1] [%] | PMA-induced TNFα release from U-937 cells, percent inhibition, 1 µg/ml [1] [%] | binding result (miR2-FL-WT-FLAG) | LPS-induced TNFα release from PBMCs of healthy donors, percent inhibition, 1 µg/ml [1] [%] | LPS-induced TNFα release from human macrophages of healthy donors, percent inhibition, 10 µg/ml [1] [%] | PMA-induced HB-EGF release from PBMCs of healthy donors, percent inhibition, 1 µg/ml [1] [%] | PMA-induced HB-EGF release from THP-1 cells, percent inhibition, 3 µg/ml [1] [%] | PMA-induced HB-EGF release from U-937 cells, percent inhibition [1] [%] | PMA-induced IL-6R release from PBMCs of healthy donors, percent inhibition, 1 µg/ml [1] [%] | PMA-induced IL-6R release from U-937 cells, percent inhibition, 3 µg/ml [1] [%] | PMA-induced TGFα release from PC3 cells, percent inhibition, 1 µg/ml [1] [%] | PMA-induced TNFα release from U-937 cells, percent inhibition, 3 µg/ml [1] [%]
B1 | 69 | 70.5 | 64.1 | 67 | 63.6 | no binding (tested: 3 µg/ml) | – | – | – | – | – | – | – | – | –
B2 | 76.7 | 75.9 | 85.9 | 80.8 | 94.5 | no binding (tested: 3 µg/ml) | 77 | 93.2 | 77.6 | 76.6 | 104 | 85 | 84.4 | 14.3 | 94.1
B3 | 78.8 | 78.4 | 67.4 | 74.5 | 86.1 | no binding (tested: 3 µg/ml) | 72.8 | 78.8 | 56.5 | 77.7 | 101 | 79.3 | 79 | 12.7 | 93.1
B4 | 65.4 | 70.7 | 72.5 | 77.7 | 91.6 | no binding (tested: 3 µg/ml) | 81.3 | 85.8 | 71.6 | 71.9 | 99.6 | 84.3 | 77.4 | 13.9 | 91.9
B5 | 71.2 | 59.9 | 46.7 | 61.8 | 65.9 | – | – | – | – | – | – | – | – | – | –
B6 | – | – | – | – | – | no binding (tested: 3 µg/ml) | – | – | – | – | – | – | – | – | –
B7 | – | – | – | – | – | no binding (tested: 3 µg/ml) | – | – | – | – | – | – | – | – | –
B8 | – | – | – | – | – | no binding (tested: 3 µg/ml) | – | – | – | – | – | – | – | – | –
B9 | – | – | – | – | – | no binding (tested: 3 µg/ml) | – | – | – | – | – | – | – | – | –

From US20240287172A1 (SCIRHOM, published 2024)
